Assay: soluble on expression in E. coli; label from the status in PepcDB or PDB records

Row | Sequence | soluble on expression in E. coli
1 | MLRVAVSAALRTVSVRALSNASVQQRVITPILLSAQKPSFQIRQYSAKAPLTKKTLEERIVLVLSLYDKIDAKKLTMDSDFSKDLGLDSLDHVEVVMAMEEEFGFEIPDGDADRFKTPRDIFQYIADKEDVFE | not soluble
2 | MVVSIGVFDGVHIGHQKVLRTMKEIAFFRKDDSLIYTISYPPEYFLPDFPGLLMTVESRVEMLSRYARTVVLDFFRIKDLTPEGFVERYLSGVSAVVVGRDFRFGKNASGNASFLRKKGVEVYEIEDVVVQGKRVSSSLIRNLVQEGRVEEIPAYLGRYFEIEGIVHKDREFGRKLGFPTANIDRGNEKLVDLKRGVYLVRVHLPDGKKKFGVMNVGFRPTVGDARNVKYEVYILDFEGDLYGQRLKLEVLKFMRDEKKFDSIEELKAAIDQDVKSARNMIDDIINSKFEKEG | soluble
3 | MAKDIKFSEEARRSMLRGVDTLANAVKVTLGPKGRNVVLEKKFGSPLITNDGVTIAKEIELEDAFENMGAKLVAEVASKTNDVAGDGTTTATVLAQAMIREGLKNVTAGANPMGLRKGIEKAVVAAVEELKTISKPIEGKSSIAQVAAISAADEEVGQLIAEAMERVGNDGVITLEESKGFTTELDVVEGMQFDRGYASPYMITDSDKMEAVLDNPYILITDKKISNIQEILPVLEQVVQQGKPLLIIAEDVEGEALATLVVNKLRGTFNVVAVKAPGFGDRRKAMLEDIAILTGGEVITEELGRDLKSATVESLGRAGKVVVTKENTTVVEGVGSTEQIEARIGQIRAQLEETTSEFDREKLQERLAKLVGGVAVIKVGAATETELKERKLRIEDALNSTRAAVEEGIVAGGGTSLMNVYTKVASIVAEGDEATGINIVLRALEEPVRQIAINAGLEGSVVVERLKGEKVGVGFNAATGEWVNMLETGIVDPAKVTRSALQNAASVAAMFLTTEAVVADKPEPNAPAMPDMGGMGMGGMGGMM | not soluble
4 | MKNLSLFTDFYEISMMNAYFTKGINPKAKFEVFFRKTPFKNGYIVLAGMHTLINELKNIRFGENELKYLKSFNILDKQFLNFLREFKLNVKISSIEEGRIVFPQAPVVVIEGHLIELLLIEGLVLNIINFESLIATKTARIKESGAKILAELGLRRAQGINGALSASKAAYIGGADFTSNMLAGYKYNIPVTGTMAHSWIMSFETEEQAFREYAKTYPNKVSLLIDTYDTLNSGLKNAIKIFKELKHEEKNNFSIRIDSGDLEYLSKAARKELNRNGLNHVKIIASNELDENIIMYLNSINAPIDIWGVGTNLVTAKGDPSLSGVYKMISIEKNGKFIPKIKISNNAEKSTLPDQKEVARIYLNDQMILDFIFLKEEKDKIKDHLNSRKEFTVFHPIQDNIFKIIKQYDDFEFLTHTVLENGKLRKGYESSLTNIRNKTKLDLSKLEHTYKRIINPHIYKVSISKNLRKLKNKLTKDIKNN | not soluble
5 | NSLSTDMSVNRDNRTITSSIMRVSNSSELIQFKNKTAPYFSEKRNVEVNINGVAKDIYGRQIVCRHLASYWEMNFMETNGKVNYQLLSTPDAIAKNVCLEKTEDFSKSPAYIYFVENKKWGTVITNFFYNMKKNGDFVRTLSACTLNHQMALGLKIKRVQESEKWVVQFFDPNRTVTHKRTVFTCDSHFELSQLSAKDFFDDFYWKIYGLEQPGQVIFEDRHNSPLTNTVKLLPDELINSRVIYHAITKNLTEVLFILMEKYKNGEISQSKLVNLLATRSSDGTPAFYIALQNGYSDIIQVYGKILNMCNLSQETILTLLAAVGANNVPGLCMSFMNGHVDTIKAYGEIVFKTPLTSDKRLYLLAAKDSHDLPGLFFALQNGHADSIRMFGSLLNKKMLSSEQIKELLKVKHGLFMALQNGHTKAIMAYGDILKILPPHQEYIDELLWIKNPNGTSGLFMAFYNGHTETIRAFCNILKNYSFTTRRLVEMLSATNKDGIPGVFVSVVNRDKETILEYCRIIKENNLEPDTIAEQFSKKMKKTFIEIINRFNHFL | soluble
6 | GSSVSSVPTKLEVVAATPTSLLISWDAPMSSSSVYYYRITYGETGGNSPVQEFTVPYSSSTATISGLSPGVDYTITVYAWGEDSAGYMFMYSPISINYRTC | soluble
7 | MGSDKIHHHHHHMDFIEVYPNALPNDLCDRLILAFEQHAGVVDGQTGNGVDLEKKISRDLTLDSFADLQPLKNELLGYTLKGTVDYFTKYSMALMGAVAVSVSDEQGQPVTLTPANFAALGAPRSDGLVKYLYRSGSINVQKYQQNKGGYPHWHSEQFPQNGHNEALHRVVLYMFYLNDMEEGGETEFYYQQRKISPKKGTMVIAPAGFTHTHRGNKPVSGDKYIATSWIMFNRAEQLYAVIA | not soluble
8 | MAHHHHHHMVNEYHEAPRPAITLPRPGTKFRASAVEPILKKVCQTLVGDRAYAHEDVQPLIKEICSEIQQRVVRLGYERYKFVTHATVTEAVNQGIRIASRGLWDPVTDGYASYTFSTETMHVNVVLYALYWE | not soluble
9 | MTRHGKNCTAGAVYTYHEKRKDTAASGYGTQSVRLGKDAIKDFDCCSLSLQPCRDPVLTEDGYLYEKEAILQYILHQKTEIAKKMKAYEKQKQALKSEGQLESKSEERERAEKFKQRENNIVSKPINPFTSGKSKDEGNQNGSTSSSSTDTSSGESSSSSALPSFWIPSLTPEAKPTLLKKPSKTVSCPMSGRPLKMSDLITVRFTPLDPSLDRVALLTRQDRYVCAVTKDTLGNSVPCAVLRPSGVVVTMECVEKLIKKDMVDPITGDKLKEKDIIPIQRGGTGFAGSGVDLKAKEARPVMQA | not soluble
10 | MSLGDSRTKPMEILLVEDGLVDARVTIHALRRSGLHHRLTLVRSVHEAILFMKRTGIFARAPRLDLLLLDMILPDGTGIDVLEEMSELQPDSSRVTTVVLTACEDASYRTRCDELGVYDYIQKPVSEDEFLRVVRDHKKLMIHLQQAAVSAAAGNHSEGHHHHHH | soluble
11 | MGSDKIHHHHHHMAHHHGMRFPTPLIPATLIKRYKRFLADCRLEDGREITAHCANPGSMMGLAEPGMRVWLEPNDDPKKKLKYGWRLVEHTNGHFTGVDTSVPNRALKAALEAHEIAEFAAYSEVQAEVKYGQNSRIDFLLTDAKLPRCYVEVKSVTLSRQPGLAEFPDSVTARGTKHLRELAAMAEAGHRAVMLYLVQRTDCDRFALAADIDPAYAAEFETAHAKGVERLVIGTTITPEGVKIGDILPS | not soluble
12 | PKIENPILIEGYPGIGLVGHIAANFLAKELKMEVIGYVESSFIPPMSLILEGKPNPPLRFYGKDNIIIAVADIYLPPTLINEIAKEIANYLEQNKAEKVISLGGMGIGIFKDKFEVWGVGGTEEENKELQDLGVKILEYGSISGMSGKLLWEASRRGLKSYVILGETFGDRPDPRAAANVVEVLDRMLTLNVSVEPLLKEAEMIEEQLRKMHEQMEKARRSVEKQYETMYL | not soluble
13 | MAELLPLSPVPLYTQLKELLRERILDGTYPSHSRMPSESELGKAFDVSRITVRQALGDLQKEGLIFKIHGKGTFVAKPKAFQNVSTLQGLGESMTQMGYEVINRLRSFRHVPANALVAARLQVEEGSLVTEIRRVRLINREPVSLELTWLPKAVGEKLEKADLVTRDIFLLLENDCGIALGHADLAIDAVLADSDLTQALDVEEGSPIMRIERLTHAADGTPLDFEHLYYRGDAFQYRLRIDRQKGGKA | not soluble
14 | MHRGITVQTSDLDDGVTGVVGKVYIEASPKHVWAAITDYNNHKSFVPKLIDSGLISDNGREQVMFERGKTGIFLFRKTVYIKLSLQGEYPKRLDFHQIEGDFKVYEGDWLIERASDGKGSILTFRAKIKPDFFAPAMFVRKVQQNDLPLEHHHHHH | soluble
15 | MGHHHHHHSHVHMKDFFYFRNHFCITFELLGINLYELMKNNNFQGFSLSIVRRFTLSVLKCLQMLSVEKIIHCDLKPENIVLYQKGQASVKVIDFGSSCYEHQKVYTYIQSRFYRSPEVILGHPYDVAIDMWSLGCITAELYTGYPLFPGENEVEQLACIMEVLGLPPAGFIQTASRRQTFFDSKGFPKNITNNRG | soluble
16 | HLPETIYVIRKGDMVIRPKYDEYQQTNGTEIIRFDQTRKESPFKVQRIIERSCKFYGNNYISKKAETNRITGISSKPPILLTPLFPTYFFPTHSDRQEENIWINMHYIENVKELKNRKSKIIFANGDSLTLNVSFHSLWHQYTNAIIYYYMVDKQSRMKSNNPEQPIDYNQSSLNIFEALSRYSLFEEN | not soluble

Source: the DeepSol protein solubility set
